Values quoted from earlier work in PMC12990809.

Tests used:
Assay in all cases: pulldown
Details in all cases: 20 nM protein, 1.5 uM RNA pool; 20 mM HEPES pH 7.8, 70 mM KCl, 10 mM NaCl, 10% glycerol, 2 mM DTT, 0.1 ug/uL BSA; 30 min, 4 C (protocol of this paper; not …); cited from earlier work
[1] = biological target: KHDRBS1 (Homo sapiens) (UniProt Q07666)
[2] = biological target: CELF6 (Homo sapiens) (UniProt Q96J87)
[3] = biological target: PABPC5 (Homo sapiens) (UniProt Q96DU9)
[4] = biological target: T1, A2BP1 (Homo sapiens) (UniProt Q9NWB1)
T1 sequence: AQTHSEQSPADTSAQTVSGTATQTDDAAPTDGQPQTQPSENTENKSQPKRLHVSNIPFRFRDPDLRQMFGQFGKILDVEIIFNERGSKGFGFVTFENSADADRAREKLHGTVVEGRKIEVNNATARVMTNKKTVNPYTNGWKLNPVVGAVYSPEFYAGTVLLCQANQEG

[5] = biological target: T2, sup-12 (Caenorhabditis elegans) (UniProt O45189)
T2 sequence: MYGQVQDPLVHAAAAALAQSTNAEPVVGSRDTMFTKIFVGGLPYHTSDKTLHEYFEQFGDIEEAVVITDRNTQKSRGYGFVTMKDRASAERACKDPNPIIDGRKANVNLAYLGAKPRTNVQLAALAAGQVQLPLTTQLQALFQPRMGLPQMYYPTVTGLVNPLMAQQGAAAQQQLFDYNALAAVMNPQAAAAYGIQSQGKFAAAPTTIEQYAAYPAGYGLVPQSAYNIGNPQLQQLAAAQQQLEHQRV

[6] = biological target: T3, RBM24 (Homo sapiens) (UniProt Q9BX46)
T3 sequence: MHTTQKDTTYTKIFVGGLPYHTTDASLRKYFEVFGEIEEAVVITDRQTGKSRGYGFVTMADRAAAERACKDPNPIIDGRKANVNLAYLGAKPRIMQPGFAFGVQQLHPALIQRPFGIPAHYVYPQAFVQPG

[7] = biological target: T4, KHDRBS2 (Homo sapiens) (UniProt Q5VWX1)
T4 sequence: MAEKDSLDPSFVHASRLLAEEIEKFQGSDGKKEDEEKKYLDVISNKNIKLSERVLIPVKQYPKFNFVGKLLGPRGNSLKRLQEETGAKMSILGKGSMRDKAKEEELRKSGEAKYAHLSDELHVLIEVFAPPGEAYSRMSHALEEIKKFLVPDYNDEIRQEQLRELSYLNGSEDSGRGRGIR

[8] = biological target: T5, mec-8 (Caenorhabditis elegans) (UniProt G5ECJ4)
T5 sequence: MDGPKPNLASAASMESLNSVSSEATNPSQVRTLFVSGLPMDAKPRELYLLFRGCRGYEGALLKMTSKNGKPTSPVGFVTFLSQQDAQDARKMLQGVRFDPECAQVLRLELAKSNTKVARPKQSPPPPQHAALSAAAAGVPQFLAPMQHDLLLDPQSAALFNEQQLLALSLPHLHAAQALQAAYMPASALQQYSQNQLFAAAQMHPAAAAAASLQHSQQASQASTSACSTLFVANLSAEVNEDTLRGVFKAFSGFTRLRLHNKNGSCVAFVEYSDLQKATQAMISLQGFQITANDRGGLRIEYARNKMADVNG

[9] = biological target: T6, HNRNPLL (Homo sapiens) (UniProt Q8WVV9)
T6 sequence: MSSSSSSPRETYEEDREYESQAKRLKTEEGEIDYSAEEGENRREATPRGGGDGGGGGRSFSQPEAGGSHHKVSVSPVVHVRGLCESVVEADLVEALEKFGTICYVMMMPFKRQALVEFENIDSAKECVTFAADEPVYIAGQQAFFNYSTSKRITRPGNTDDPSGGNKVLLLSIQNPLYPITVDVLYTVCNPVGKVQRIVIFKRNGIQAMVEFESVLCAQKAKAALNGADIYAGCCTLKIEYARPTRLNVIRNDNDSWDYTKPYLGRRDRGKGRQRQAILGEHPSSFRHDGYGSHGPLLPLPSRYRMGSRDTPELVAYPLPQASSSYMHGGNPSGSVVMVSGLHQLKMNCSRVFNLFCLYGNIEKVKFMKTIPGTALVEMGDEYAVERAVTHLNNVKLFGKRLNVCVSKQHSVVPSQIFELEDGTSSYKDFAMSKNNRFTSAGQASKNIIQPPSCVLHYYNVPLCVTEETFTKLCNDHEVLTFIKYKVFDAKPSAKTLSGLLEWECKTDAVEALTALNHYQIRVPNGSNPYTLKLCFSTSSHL

[10] = biological target: HNRNPCL1 (Homo sapiens) (UniProt O60812)
HNRNPCL1 (Homo sapiens), sequence (O60812 1-131): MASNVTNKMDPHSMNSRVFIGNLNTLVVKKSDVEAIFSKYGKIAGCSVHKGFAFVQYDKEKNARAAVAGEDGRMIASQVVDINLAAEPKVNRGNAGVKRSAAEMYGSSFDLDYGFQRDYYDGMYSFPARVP

[11] = biological target: T7, etr-1 (Caenorhabditis elegans) (UniProt A8DYS0)
T7 sequence: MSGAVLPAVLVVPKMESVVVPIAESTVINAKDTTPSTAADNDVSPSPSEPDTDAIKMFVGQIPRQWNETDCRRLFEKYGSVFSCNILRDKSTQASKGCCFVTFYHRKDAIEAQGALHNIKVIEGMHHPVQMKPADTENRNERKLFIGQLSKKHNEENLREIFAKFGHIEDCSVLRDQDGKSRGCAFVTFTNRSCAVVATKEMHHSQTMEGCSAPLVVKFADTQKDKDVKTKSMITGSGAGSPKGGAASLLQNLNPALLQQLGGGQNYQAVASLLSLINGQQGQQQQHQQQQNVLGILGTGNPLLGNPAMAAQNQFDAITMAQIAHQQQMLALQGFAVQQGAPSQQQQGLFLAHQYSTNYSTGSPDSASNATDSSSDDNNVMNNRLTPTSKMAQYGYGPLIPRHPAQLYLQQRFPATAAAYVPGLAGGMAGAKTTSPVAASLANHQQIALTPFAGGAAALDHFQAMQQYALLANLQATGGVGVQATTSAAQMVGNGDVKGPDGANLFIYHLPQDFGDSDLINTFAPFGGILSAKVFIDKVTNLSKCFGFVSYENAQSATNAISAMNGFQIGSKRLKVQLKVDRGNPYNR

[12] = biological target: T8, PF10_0068 (Plasmodium falciparum) (UniProt Q8IJX3)
T8 sequence: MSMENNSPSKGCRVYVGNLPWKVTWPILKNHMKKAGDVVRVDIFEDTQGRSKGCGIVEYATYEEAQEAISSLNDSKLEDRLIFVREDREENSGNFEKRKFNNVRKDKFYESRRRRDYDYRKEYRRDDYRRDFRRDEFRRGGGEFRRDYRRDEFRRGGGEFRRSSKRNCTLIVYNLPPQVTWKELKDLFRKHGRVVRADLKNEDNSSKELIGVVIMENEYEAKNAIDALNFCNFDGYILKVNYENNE

[13] = biological target: T9, asd-1 (Caenorhabditis elegans) (UniProt A1BPT6)
T9 sequence: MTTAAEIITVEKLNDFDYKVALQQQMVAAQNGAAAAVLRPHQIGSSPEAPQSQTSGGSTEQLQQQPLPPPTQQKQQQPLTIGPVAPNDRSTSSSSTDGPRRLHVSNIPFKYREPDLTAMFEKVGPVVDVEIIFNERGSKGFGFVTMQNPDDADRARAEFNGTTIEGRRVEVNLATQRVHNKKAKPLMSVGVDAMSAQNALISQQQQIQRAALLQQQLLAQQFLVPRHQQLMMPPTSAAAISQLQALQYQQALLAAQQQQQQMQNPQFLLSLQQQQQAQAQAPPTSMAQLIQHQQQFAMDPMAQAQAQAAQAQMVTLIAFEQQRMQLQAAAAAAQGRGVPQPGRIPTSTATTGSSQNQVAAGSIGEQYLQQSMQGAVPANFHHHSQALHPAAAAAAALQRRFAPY

[14] = biological target: PCBP1 (Homo sapiens) (UniProt Q15365)
PCBP1 (Homo sapiens), sequence (Q15365 whole entry): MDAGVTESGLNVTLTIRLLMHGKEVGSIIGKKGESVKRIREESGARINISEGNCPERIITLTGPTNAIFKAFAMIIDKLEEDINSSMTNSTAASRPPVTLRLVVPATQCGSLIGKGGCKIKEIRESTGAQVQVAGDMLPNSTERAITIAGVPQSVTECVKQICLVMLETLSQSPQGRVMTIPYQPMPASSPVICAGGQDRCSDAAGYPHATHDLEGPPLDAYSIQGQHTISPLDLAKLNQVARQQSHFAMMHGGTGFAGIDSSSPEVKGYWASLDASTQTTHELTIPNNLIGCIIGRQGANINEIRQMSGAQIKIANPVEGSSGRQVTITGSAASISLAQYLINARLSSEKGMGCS

[15] = biological target: T10, DAZAP1 (Homo sapiens) (UniProt Q96EP5)
T10 sequence: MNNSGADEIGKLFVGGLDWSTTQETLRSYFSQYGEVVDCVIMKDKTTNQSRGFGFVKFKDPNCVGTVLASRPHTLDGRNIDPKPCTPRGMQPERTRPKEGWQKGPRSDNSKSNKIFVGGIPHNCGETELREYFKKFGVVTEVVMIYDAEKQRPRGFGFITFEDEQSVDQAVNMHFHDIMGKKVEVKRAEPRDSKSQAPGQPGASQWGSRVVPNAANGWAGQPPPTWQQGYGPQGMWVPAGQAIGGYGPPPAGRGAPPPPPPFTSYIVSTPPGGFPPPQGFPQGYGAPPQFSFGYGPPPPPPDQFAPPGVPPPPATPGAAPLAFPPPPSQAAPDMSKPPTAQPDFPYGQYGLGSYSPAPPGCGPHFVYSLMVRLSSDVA

[16] = biological target: T11, MAL8P1.40 (Plasmodium falciparum) (UniProt Q8IB66)
T11 sequence: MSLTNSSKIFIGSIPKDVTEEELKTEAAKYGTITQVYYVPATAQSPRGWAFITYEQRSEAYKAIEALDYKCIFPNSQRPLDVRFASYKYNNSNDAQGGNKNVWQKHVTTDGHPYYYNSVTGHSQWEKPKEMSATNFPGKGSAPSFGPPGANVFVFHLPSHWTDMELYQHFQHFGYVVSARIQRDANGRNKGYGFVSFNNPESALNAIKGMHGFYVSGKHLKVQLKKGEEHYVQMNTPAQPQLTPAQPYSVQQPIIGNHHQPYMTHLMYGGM

[17] = biological target: T12, exc-7 (Caenorhabditis elegans) (UniProt Q20084)
T12 sequence: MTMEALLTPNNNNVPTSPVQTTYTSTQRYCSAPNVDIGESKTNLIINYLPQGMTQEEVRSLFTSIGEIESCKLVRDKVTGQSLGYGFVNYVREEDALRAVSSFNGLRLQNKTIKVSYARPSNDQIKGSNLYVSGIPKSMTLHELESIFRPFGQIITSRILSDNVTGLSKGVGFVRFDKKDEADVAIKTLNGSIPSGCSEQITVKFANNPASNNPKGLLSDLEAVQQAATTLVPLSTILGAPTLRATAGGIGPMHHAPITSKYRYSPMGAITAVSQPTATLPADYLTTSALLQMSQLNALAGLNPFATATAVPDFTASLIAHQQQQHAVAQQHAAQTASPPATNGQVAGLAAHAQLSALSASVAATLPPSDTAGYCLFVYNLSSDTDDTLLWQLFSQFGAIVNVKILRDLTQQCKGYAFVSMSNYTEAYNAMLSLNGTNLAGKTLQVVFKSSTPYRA

[18] = biological target: CELF5 (Homo sapiens) (UniProt Q8N6W0)
CELF5 (Homo sapiens), sequence (Q8N6W0 whole entry): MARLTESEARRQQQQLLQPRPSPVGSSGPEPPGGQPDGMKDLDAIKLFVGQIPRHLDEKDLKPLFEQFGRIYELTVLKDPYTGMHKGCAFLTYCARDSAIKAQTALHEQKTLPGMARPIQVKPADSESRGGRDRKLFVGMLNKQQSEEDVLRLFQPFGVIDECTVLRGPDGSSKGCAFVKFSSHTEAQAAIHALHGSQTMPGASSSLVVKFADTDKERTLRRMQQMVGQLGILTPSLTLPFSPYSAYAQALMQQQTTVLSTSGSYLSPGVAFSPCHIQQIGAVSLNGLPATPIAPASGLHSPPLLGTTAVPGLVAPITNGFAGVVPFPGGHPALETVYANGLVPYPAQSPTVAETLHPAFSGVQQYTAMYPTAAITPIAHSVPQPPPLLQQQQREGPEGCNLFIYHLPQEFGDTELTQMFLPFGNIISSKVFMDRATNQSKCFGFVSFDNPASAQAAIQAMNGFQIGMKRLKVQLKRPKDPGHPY

[19] = biological target: IGF2BP3 (Homo sapiens) (UniProt O00425)
IGF2BP3 (Homo sapiens), sequence (O00425 whole entry): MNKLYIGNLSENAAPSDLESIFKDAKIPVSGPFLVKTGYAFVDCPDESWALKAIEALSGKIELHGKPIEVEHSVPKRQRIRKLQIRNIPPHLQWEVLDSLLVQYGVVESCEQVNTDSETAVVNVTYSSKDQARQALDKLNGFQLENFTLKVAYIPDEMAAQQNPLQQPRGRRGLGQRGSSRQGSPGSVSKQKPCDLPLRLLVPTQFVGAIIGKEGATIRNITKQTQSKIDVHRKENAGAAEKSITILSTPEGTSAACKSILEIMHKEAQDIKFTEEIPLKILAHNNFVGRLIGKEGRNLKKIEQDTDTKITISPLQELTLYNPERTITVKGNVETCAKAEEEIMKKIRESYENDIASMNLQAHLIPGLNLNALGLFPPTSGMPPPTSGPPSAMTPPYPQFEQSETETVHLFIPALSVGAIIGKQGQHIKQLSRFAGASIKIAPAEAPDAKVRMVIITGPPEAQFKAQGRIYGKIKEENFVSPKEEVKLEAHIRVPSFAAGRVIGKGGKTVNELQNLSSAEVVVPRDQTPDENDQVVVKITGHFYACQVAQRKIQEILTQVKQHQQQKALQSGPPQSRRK

[20] = biological target: T13, sup-26 (Caenorhabditis elegans) (UniProt D5MCR3)
T13 sequence: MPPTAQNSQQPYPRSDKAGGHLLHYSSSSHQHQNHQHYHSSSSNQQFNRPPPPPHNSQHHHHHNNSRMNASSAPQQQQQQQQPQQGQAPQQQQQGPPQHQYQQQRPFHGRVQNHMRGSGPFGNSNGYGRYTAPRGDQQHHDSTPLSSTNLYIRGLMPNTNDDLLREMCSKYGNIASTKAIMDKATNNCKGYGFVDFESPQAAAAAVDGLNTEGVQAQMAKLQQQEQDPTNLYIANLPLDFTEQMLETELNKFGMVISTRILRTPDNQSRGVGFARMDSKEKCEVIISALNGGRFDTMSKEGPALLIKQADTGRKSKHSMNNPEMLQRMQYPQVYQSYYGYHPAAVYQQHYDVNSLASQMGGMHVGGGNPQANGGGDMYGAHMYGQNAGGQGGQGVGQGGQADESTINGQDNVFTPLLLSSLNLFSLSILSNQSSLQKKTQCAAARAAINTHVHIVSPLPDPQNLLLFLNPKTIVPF

KHDRBS1 (Homo sapiens), sequence (Q07666 107-291): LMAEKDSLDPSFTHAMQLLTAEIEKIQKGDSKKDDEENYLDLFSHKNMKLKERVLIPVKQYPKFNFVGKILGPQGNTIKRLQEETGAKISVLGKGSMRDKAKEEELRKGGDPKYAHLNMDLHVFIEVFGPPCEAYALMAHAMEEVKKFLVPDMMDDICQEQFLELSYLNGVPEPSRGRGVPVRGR
CELF6 (Homo sapiens), sequence (Q96J87 whole entry): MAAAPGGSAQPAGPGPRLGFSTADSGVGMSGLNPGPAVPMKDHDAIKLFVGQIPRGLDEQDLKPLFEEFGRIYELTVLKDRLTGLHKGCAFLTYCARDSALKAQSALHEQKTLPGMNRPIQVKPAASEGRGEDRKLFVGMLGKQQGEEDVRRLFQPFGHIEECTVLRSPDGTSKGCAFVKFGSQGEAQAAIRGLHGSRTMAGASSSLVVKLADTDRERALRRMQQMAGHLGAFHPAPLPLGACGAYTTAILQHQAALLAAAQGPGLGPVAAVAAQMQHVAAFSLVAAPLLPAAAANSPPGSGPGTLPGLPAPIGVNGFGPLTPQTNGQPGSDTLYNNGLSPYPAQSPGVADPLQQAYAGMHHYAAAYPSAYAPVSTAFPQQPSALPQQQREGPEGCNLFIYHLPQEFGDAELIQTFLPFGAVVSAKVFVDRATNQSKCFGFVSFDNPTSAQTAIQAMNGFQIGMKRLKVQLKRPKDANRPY
PABPC5 (Homo sapiens), sequence (Q96DU9 whole entry): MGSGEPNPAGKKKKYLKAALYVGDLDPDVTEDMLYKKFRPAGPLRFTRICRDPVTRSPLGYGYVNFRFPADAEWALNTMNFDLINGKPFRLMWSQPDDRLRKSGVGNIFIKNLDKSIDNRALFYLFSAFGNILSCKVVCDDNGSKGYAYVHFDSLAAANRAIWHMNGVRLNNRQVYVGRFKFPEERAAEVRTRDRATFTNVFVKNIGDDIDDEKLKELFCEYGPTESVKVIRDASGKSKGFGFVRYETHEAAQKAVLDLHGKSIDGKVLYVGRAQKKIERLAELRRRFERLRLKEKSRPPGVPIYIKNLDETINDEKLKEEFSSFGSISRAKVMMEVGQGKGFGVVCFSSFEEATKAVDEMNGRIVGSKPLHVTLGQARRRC

In the case of AUAAAAG [RNAcompete motif RNCMPT00169], the binding signal (z-score (mean of top ten 7-mers)) [1] is listed as 9.86.

In the case of UGUGGUG [RNAcompete motif RNCMPT00187], the binding signal (z-score (mean of top ten 7-mers)) [2] is given as 7.27.

In the case of AGAAANU [RNAcompete motif RNCMPT00171], the binding signal (z-score (mean of top ten 7-mers)) [3] is listed as 7.11.

In the case of UGCAUG [RNAcompete motif RNCMPT00168], the binding signal (z-score (mean of top ten 7-mers)) [4] is given as 23.3.

In the case of UGUGUG [RNAcompete motif RNCMPT00416], the binding signal (z-score (mean of top ten 7-mers)) [5] is given as 10.8.

In the case of GUGUGA [RNAcompete motif RNCMPT00184], the binding signal (z-score (mean of top ten 7-mers)) [6] is given as 10.6.

In the case of AUAAA [RNAcompete motif RNCMPT00185], the binding signal (z-score (mean of top ten 7-mers)) [7] is given as 8.2.

In the case of AGCACA [RNAcompete motif RNCMPT00181], the binding signal (z-score (mean of top ten 7-mers)) [8] is given as 8.36.

For ACANACA [RNAcompete motif RNCMPT00178], the binding signal (z-score (mean of top ten 7-mers)) [9] is listed as 9.56.

In the case of UUUUUU [RNAcompete motif RNCMPT00167], the binding signal (z-score (mean of top ten 7-mers)) [10] is given as 18.4.

For GUGUGUU [RNAcompete motif RNCMPT00183], the binding signal (z-score (mean of top ten 7-mers)) [11] is given as 8.98.

For GGAGGA [RNAcompete motif RNCMPT00199], the binding signal (z-score (mean of top ten 7-mers)) [12] is given as 8.55.

For UGCAUGA [RNAcompete motif RNCMPT00180], the binding signal (z-score (mean of top ten 7-mers)) [13] is given as 20.3.

In the case of CCNANCC [RNAcompete motif RNCMPT00186], the binding signal (z-score (mean of top ten 7-mers)) [14] is given as 6.42.

In the case of UAGGUAG [RNAcompete motif RNCMPT00013], the binding signal (z-score (mean of top ten 7-mers)) [15] is listed as 7.92.

In the case of AUACAUG [RNAcompete motif RNCMPT00197], the binding signal (z-score (mean of top ten 7-mers)) [16] is given as 14.8.

For UUAAGUU [RNAcompete motif RNCMPT00014], the binding signal (z-score (mean of top ten 7-mers)) [17] is listed as 13.7.

For GUGUGUG [RNAcompete motif RNCMPT00166], the binding signal (z-score (mean of top ten 7-mers)) [18] is given as 9.48.

In the case of AACAA [RNAcompete motif RNCMPT00172], the binding signal (z-score (mean of top ten 7-mers)) [19] is listed as 6.02.

In the case of UAUAUA [RNAcompete motif RNCMPT00182], the binding signal (z-score (mean of top ten 7-mers)) [20] is given as 6.85.
